No end group written: not given here.

Holding throughout (conditions): both partners purified
The target in experiment [1] is T1, Arabidopsis thaliana phytochrome B residues 1 to 982, AtPhyB (1-982) (Arabidopsis thaliana, UniProt P14713 1-982, phycocyanobilin chromophore, covalently bound).
T1 construct: the oligomeric state is not measured directly here; also called AtPhyB982; source: E. coli LOBSTR, purified (Co2+-NTA IMAC, anion exchange); plasmid also encodes Synechocystis sp. heme oxygenase 1 and PcyA
T1 sequence (looked up): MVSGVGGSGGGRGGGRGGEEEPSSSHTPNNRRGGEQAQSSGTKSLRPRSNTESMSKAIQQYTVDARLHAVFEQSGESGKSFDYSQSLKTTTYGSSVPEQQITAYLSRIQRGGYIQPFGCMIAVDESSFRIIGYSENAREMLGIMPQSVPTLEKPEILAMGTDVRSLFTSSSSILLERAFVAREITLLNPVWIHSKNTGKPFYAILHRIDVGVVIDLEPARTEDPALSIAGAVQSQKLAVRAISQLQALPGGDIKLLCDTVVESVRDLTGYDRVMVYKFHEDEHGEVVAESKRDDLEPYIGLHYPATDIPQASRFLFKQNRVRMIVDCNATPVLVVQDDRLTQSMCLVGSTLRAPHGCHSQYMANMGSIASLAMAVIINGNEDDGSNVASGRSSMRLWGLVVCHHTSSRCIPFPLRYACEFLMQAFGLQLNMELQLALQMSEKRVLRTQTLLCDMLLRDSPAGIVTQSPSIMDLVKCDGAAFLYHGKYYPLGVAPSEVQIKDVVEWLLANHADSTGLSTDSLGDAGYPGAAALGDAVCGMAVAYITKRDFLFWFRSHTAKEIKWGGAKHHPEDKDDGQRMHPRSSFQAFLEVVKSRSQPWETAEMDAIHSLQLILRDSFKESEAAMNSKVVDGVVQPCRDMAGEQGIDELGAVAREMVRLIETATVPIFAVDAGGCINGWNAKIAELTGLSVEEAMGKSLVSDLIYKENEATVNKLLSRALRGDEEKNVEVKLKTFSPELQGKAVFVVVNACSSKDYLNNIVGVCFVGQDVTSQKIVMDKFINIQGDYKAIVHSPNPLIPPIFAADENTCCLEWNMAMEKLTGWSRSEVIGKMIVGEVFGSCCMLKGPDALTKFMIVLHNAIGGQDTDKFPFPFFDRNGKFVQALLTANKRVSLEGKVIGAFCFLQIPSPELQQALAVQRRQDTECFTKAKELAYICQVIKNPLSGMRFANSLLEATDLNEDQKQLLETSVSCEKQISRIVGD
Briefly: FRET or BRET; association kinetics at 15 °C after a 0.5-s pulse of red light (658 nm, 69 mW cm^-2, optical shutter); 20 nM PIF-mScarlet-I variant with 500 to 2,000 nM AtPhyB PCM, or 30 nM P6A-mScarlet-I with 750 to 2,500 nM AtPhyB (1-982); 50 mM Tris/HCl pH 8.0, 20 mM NaCl; pseudo-first-order, linear fit of koFR against the AtPhyB concentration; kaFR corrected for the Pfr fraction; Kd calculated from kdFR and kaFR ….

For experiment [2], the target named is T2, Arabidopsis thaliana phytochrome B, N-terminal fragment encompassing the N-terminal extension (NTE) and the … (Arabidopsis thaliana, UniProt P14713 1-651, phycocyanobilin chromophore, covalently bound).
T2 construct: Phytochrome B, Arabidopsis thaliana, GenBank CAA35222.1; N-terminal fragment with the NTE and the PCM (nPAS-GAF-PHY), lacking PAS1, PAS2 and the HKRD; source: E. coli LOBSTR, purified (Co2+-NTA IMAC, anion exchange); plasmid also encodes Synechocystis sp. heme oxygenase 1 and PcyA
T2 sequence (looked up): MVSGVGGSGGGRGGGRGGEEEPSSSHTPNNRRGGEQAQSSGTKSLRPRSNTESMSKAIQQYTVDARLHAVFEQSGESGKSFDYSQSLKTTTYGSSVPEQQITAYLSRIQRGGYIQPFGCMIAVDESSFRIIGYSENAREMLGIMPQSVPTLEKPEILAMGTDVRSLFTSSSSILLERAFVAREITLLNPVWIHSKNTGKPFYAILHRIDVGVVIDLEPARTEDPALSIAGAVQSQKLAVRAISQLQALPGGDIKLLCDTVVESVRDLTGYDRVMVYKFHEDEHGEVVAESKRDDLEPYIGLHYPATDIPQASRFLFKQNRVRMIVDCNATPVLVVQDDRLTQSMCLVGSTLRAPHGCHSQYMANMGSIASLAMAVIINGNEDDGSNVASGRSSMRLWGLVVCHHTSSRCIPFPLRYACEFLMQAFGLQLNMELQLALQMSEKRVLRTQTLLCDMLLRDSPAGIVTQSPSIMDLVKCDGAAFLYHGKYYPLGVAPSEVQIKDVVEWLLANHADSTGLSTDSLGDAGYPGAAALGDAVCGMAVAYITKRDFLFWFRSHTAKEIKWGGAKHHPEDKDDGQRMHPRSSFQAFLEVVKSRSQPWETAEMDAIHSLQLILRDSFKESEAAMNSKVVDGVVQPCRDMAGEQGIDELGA
Briefly: FRET or BRET; equilibrium titration: 20 nM P6A-mScarlet-I with 0 to 2,000 nM AtPhyB PCM at 15 °C after red light (658 nm); 50 mM Tris/HCl pH 8.0, 20 mM NaCl, 100 μg/mL BSA; single-site binding isotherm.

For experiment [3], the target named is T2, Arabidopsis thaliana phytochrome B, …. Kind of experiment: FRET or BRET; association kinetics at 15 °C after a 0.5-s pulse of red light (658 nm, 69 mW cm^-2, optical shutter); 20 nM PIF-mScarlet-I variant with 500 to 2,000 nM AtPhyB PCM, or 30 nM P6A-mScarlet-I with 750 to 2,500 nM AtPhyB (1-982); 50 mM Tris/HCl pH 8.0, 20 mM NaCl; pseudo-first-order, linear fit of koFR against the AtPhyB concentration; kaFR corrected for the Pfr fraction; Kd calculated from kdFR and kaFR ….

For experiment [4], the target named is T1, Arabidopsis thaliana phytochrome B …. Described as above. The source holds these as a separate data set.
Experiment [5] concerns the target T2, Arabidopsis thaliana phytochrome B, …. Kind of experiment: FRET or BRET; as a5 (association and dissociation kinetics after a red-light pulse) at several temperatures up to 30 °C; values told for 30 °C or for 30 °C against 15 °C. (In general: Bioluminescence resonance energy transfer reports proximity on the nanometre scale.)

B1: P6A-mScarlet-I (Arabidopsis PIF6 residues 14 to 53, APB.A portion, fused to mScarlet-I) (domain or fragment, Arabidopsis thaliana, UniProt Q8L5W7 14-53, looked up)
chain: DQEYMELVFENGQILAKGQRSNVSLHNQRTKSIMDLYEAE-{mScarlet‑I}
notes: mScarlet-I: GenBank APD76536; source: E. coli LOBSTR, purified (IMAC, SENP2 cleavage, second IMAC, optionally anion exchange); not shown: His6-SUMO, N-terminal, cleaved; mScarlet-I, C-terminal, kept
For the molecule B1, the Kd was 1050 ± 240 nM in experiment [1]; 130 ± 80 nM in experiment [2]; 183 ± 48 nM in experiment [3]; 1400 nM in experiment [4]; roughly 900 nM in experiment [5]. The koff in experiment [1] was 0.095 s⁻¹; in experiment [3], 0.11 s⁻¹. Also, the kon is 90000 M⁻¹ s⁻¹ in experiment [1] and 610000 M⁻¹ s⁻¹ in experiment [3].

As usually defined, the Kd is the concentration at which binding is half-saturated. The term koff denotes a measure of how fast the partners let go of each other. In general, kon refers to the second-order rate constant of association.
